The values that follow are results of earlier work, collected in US20010039026A1, “Assay method” (priority 2000, published 2001).

Data set [1] concerns primary, nonsyncytium-inducing (NSI) HIV-1 strains. The conditions noted are these: primary NSI HIV-1 strains.
For a further data set, the target named is T1, CCCKR5 (Homo sapiens, UniProt P51681).
T1 construct: expressed in transfected cells; host or cells: CHO-K1 (stably transfected)
The conditions noted are these: transfected CHO-K1 cells.

Data set [2] relates to env-mediated cell-cell fusion.

T1 sequence (P51681 whole entry): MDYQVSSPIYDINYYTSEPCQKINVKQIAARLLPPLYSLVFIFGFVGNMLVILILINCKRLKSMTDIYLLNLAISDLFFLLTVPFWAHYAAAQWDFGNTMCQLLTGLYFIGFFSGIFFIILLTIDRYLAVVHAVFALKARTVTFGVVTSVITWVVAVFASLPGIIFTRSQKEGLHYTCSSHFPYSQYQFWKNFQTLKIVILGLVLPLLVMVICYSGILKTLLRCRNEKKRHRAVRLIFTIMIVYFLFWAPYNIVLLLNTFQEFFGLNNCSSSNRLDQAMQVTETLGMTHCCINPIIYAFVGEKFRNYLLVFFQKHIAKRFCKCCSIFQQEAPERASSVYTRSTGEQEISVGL

B1: MIP-1-β: macrophage inflammatory protein, β-chemokine ligand of CCR5 (protein, UniProt P13236 24-92, looked up)
C-C motif chemokine 4: APMGSDPPTACCFSYTARKLPRNFVVDYYETSSLCSQPAVVFQTKRSKQVCADPSESWVQEYVYDLELN
As to B1, in data set [1], the “inhibition of infection of CD4(+) cells at the virus entry stage” value is on record as “inhibit infection”. Further, in the data set with CCCKR5, the “agonist activity at CCCKR5” value is “active at physiologic concentrations”. Besides, in data set [2], the “block of env-mediated cell-cell fusion” value is recorded as “block env-mediated cell-cell fusion”.
